In JPH11332563A (dated 1999):

Key:
[1] = target: T1, ヒト可溶性CD4 (human soluble CD4 prepared in Example 2, C-terminal FLAG-tag, from COS7 cells) (human, UniProt P01730 26-396); test: SPR (BIAcore 2000), soluble CD4 amine-coupled on CM5, antibody (50 ug/ml) as analyte
T1 construct: extracellular domain; no cleavage site is stated; also called ヒトCD4; CD4分子

[2] = target: T1, ヒト可溶性CD4 (human soluble CD4 prepared in …); test: SPR (BIAcore 2000), antibody amine-coupled on CM5, soluble CD4 as analyte

Kd [1] [nM]	koff [1] [s⁻¹]	kon [1] [M⁻¹ s⁻¹]	Kd [2] [nM]	fold higher binding affinity than 13B8.2抗体 (comparison of KD) [2] [fold]	koff [2] [s⁻¹]	kon [2] [M⁻¹ s⁻¹]	Binder
0.808	5.33e-06	6600	1.71	~4.4	0.000231	135000	4H5 抗体 (monoclonal antibody produced by Mouse-Mouse hybridoma 4H5, FERM P-16807) (antibody, IgG1, V domains shown, also called 4H5 antibody; 抗ヒトCD4抗体 4H5) VH: QVQLQQSGPELVKPGASVKMSCKASGYTFTDYVINWLNQRTGQGLEWIGEIYPGSGSAYYNEMFKGKATLTADKSSNTAYMQLSSLTSEDSAVYFCARRGTGTGFAYWGRGTLVTVSA VL: not shown
1.24	2.92e-05	23600					キメラ 4H5抗体 (ヒトマウスキメラ抗CD4抗体, expressed from pG14H5 in COS7 cells) (antibody, V domains shown) VH: QVQLQQSGPELVKPGASVKMSCKASGYTFTDYVINWLNQRTGQGLEWIGEIYPGSGSAYYNEMFKGKATLTADKSSNTAYMQLSSLTSEDSAVYFCARRGTGTGFAYWGRGTLVTVSA VL: not shown
